Patent publication US20220378956A1

Target: soluble uPAR (suPAR) (UniProt Q03405)
Test: SPR (Biacore 2000), antibody captured on protein A/G surface, suPAR injected, 25 C, 1:1 Langmuir fit

Kd [nM] | Binder
0.28 | Human Engineered ATN-658 variant HE ATN-3 (antibody, V domains shown) VH: EVQLVQSGPEVKKTGASVKISCKASGYSFTSYYMHWVRQAHGQGLEWIGEINPYNGGASYNQKIQGRATFTVDTSTSTAYMEFSSLRSEDTAVYYCARSIYGHSVLDYWGQGTLVTVSS VL: DVVMTQSPLSLSVTIGEPASISCRSSQSLLDSDGKTYLNWLLQKPGQSPKRLIYLVSKRDSGVPDRFSGSGSGTDFTLKISRVEAEDVGVYYCWQGTHFPLTFGQGTKLEIK
0.28 | Human Engineered ATN-658 variant HE ATN-1 (antibody, human IgG1, V domains shown) VH: EVQLVQSGPEVVKTGASVKISCKASGYSFTSYYMHWVKQAHGQGLEWIGEINPYNGGASYNQKIKGRATFTVDTSTRTAYMEFSSLRSEDTAVYYCARSIYGHSVLDYWGQGTLVTVSS VL: DVVMTQSPLSLSVTIGEPASISCRSSQSLLDSDGKTYLNWLLQKPGQSPKRLIYLVSKRDSGVPDRFSGSGSGTDFTLKISRVEAEDVGVYYCWQGTHFPLTFGQGTKLEIK
